Source: paper doi:10.1101/2025.09.11.675682, “Weak SLP-76-PLC-γ1 interaction in the LAT-nucleated multi-protein complex fine-tunes TCR signal strength to optimize T cell responsiveness” (bioRxiv, 2025)

T1: PLC-γ1 (Phospholipase C-γ1), 1–1219 (UniProt P19174 1-1219)
T1 construct: the text calls it full length PLC-γ1; also called full length PLC-γ1
T1 sequence (looked up): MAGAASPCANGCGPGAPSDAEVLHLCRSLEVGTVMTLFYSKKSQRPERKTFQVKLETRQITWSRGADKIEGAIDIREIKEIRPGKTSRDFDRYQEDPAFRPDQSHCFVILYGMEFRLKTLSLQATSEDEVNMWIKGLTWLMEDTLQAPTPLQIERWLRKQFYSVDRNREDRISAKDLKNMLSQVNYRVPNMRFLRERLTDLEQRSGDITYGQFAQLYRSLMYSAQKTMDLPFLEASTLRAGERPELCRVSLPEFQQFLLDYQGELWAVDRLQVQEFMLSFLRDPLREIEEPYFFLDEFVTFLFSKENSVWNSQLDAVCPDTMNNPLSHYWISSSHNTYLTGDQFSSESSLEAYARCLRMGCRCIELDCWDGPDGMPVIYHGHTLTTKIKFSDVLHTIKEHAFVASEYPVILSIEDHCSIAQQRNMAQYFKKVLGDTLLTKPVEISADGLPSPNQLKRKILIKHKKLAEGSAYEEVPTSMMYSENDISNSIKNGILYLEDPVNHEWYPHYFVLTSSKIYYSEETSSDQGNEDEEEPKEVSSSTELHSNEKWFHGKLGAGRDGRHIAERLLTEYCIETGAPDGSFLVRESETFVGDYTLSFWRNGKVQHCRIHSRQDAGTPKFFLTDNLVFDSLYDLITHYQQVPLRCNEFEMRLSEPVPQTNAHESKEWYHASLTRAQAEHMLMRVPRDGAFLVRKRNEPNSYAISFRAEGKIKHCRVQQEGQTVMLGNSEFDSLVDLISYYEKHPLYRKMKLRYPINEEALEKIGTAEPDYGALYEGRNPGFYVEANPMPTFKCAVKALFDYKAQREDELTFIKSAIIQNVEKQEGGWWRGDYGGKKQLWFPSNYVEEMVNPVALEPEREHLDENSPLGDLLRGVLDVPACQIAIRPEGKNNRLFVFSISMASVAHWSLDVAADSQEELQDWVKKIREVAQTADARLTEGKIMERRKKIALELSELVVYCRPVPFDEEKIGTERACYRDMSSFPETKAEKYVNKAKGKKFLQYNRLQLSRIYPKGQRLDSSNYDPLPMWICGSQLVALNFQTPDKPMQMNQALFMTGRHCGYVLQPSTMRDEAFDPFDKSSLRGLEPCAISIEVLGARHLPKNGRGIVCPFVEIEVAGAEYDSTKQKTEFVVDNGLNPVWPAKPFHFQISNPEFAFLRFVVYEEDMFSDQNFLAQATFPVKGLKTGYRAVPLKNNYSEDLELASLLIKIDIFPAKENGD


Experiments:
[1] = biological target: T1, PLC-γ1 (Phospholipase C-γ1), 1–1219; assay: ITC; VP-ITC; 5°C; 20 mM Hepes (pH 7.4), 100 mM NaCl, 0.1 mM DTT; 4 μM in the cell, 40 μM in the syringe; single binding site fit with 1:1 stoichiometry; 3 independent experiments; settings: both partners purified
[2] = biological target: T1, PLC-γ1 (Phospholipase C-γ1), 1–1219; assay: cell-based or functional assay

| Kd [1] [µM] | dH [1] [kcal/mol] | PLC-γ1 activity (IP3 from PIP2-bearing liposomes): LAT-Gads-SLP-76^WT-PLC-γ1 tetramer against PLC-γ1 with phospho-LAT alone [2] [fold] | Binder |
| --- | --- | --- | --- |
| 3.99 | -3.3 | – | QPPVPPQRPMAALPPP (peptide, UniProt Q13094 185-200, looked up, SLP-76 proline-rich region, residues 185–200; also called SLP-76 185–200 (WT); SLP-76 PRR_(185–200) peptide) [SLP-76 PRR peptide (aa 185–200), wild type] |
| 2.32 | -3.8 | 1.7 | SLP-76^WT polypeptide (aa 103–258, Y113F, Y173F) (domain or fragment, UniProt Q13094 103-258, looked up, wild-type proline-rich region; not shown: His6, N-terminal, cleaved; GST, N-terminal, cleaved) GGWSSFEEDDFESPNDDQDGEDDGDYESPNEEEEAPVEDDADYEPPPSNDEEALQNSILPAKPFPNSNSMFIDRPPSGKTPQQPPVPPQRPMAALPPPPAGRNHSPLPPPQTNHEEPSRSRNHKTAKLPAPSIDRSTKPPLDRSLAPFDREPFTLG |
